Source: US11607466B2, “Tumor and immune cell imaging based on PD-L1 expression” (The Johns Hopkins University, priority 2016, dated 2023)

Columns and labels:
PD-L1 in MDAMB231 tumors [1] = target: T1, PD-L1 in MDAMB231 tumors (Homo sapiens, UniProt Q9NZQ7); assay: Tumor PD-L1 engagement by PD-L1 mAbs measured with [64Cu]WL12, MDAMB231 xenografts; type: in vivo; conditions: mAb 24 h prior, 120 min after tracer injection, ex vivo
T1 construct: MDAMB231 breast cancer cells, which naturally express PD-L1; endogenous in cells; host or cells: MDAMB231 (ATCC); as xenografts in NSG mice for the in vivo units
Description: To evaluate the effect of dose on tumor PD-L1 occupancy at the tumor, mice bearing MDAMB231 tumors were injected with escalating doses of AtzMab from 0.009 to 24 mg/kg body weight.

PD-L1 in MDAMB231 tumors [2] = target: T1, PD-L1 in MDAMB231 tumors; assay: as above; type: in vivo; conditions: AtzMab 20 mg/kg, AveMab 10 mg/kg, DurMab 10 mg/kg, 24 h prior to tracer
[3] = target: T2, PD-L1 in HCC827, H226, hPD-L1 and MDAMB231 cells (Homo sapiens, UniProt Q9NZQ7); assay: [64Cu]WL12 binding to PD-L1-positive cells in the presence of 60 nM mAbs; type: cell-based; conditions: 60 nM mAb vs PBS control
T2 construct: Each of which naturally expresses PD-L1; endogenous in cells; host or cells: HCC827, H226, MDAMB231 (endogenous) and CHO-hPD-L1 (stably transfected)
Description: Non-interacting residues are shown in gray. […] Mean fluorescence intensities were determined by flow cytometry.
HCC827 and H226 non-small cell lung cancer (NSCLC) cells also were tested.

[4] = target: T3, PD-L1 in A549-iPDL1 cells (Homo sapiens, UniProt Q9NZQ7); assay: Binding studies in doxycycline-inducible A549-iPDL1 cells; type: cell-based
T3 construct: expressed in transfected cells; host or cells: A549 NSCLC cells, lentiviral pINDUCER20, G418-selected, doxycycline-induced
From the text: To do so, an A549 NSCLC cell line with doxycycline-inducible PD-L1 expression (A549-iPD-L1) was generated. A549 is a Kras G12S lung adenocarcinoma cell line that expresses low PD-L1 at baseline.

[5] = target: T4, PD-L1 in human NSCLC and TNBC xenografts (Homo sapiens, UniProt Q9NZQ7); conditions: in vivo; cited from earlier work
T4 construct: host or cells: MDAMB231, SUM149 (TNBC), H2444, H1155 (NSCLC) xenografts in mice

[6] = target: T5, PD-L1 in A549-iPDL1 tumors (Homo sapiens, UniProt Q9NZQ7); assay: [64Cu]WL12 PET and biodistribution in A549-iPDL1 and A549 xenografts; type: in vivo; conditions: 72 h of doxycycline treatment
T5 construct: expressed in transfected cells; host or cells: A549 NSCLC cells, lentiviral pINDUCER20, G418-selected, doxycycline-induced; as xenografts for the in vivo unit
From the text: To do so, an A549 NSCLC cell line with doxycycline-inducible PD-L1 expression (A549-iPD-L1) was generated. A549 is a Kras G12S lung adenocarcinoma cell line that expresses low PD-L1 at baseline. It has been transduced with PD-L1 in the all-in-one lentivirus pINDUCER20 vector (Meerbrey, et al., 2011), selected with G418, confirmed for PD-L1 induction by flow cytometry (FIG. 37A) and used for in vitro and in vivo studies. Cy5-PD-L1-mAbs binding to doxycycline-treated A549-iPDL1 cells was blocked by WL12 validating the specificity of WL12 (FIG. 37B). […] Accordingly, it is expected that PET will play a key role in quantifying dynamic changes in PD-L1 expression within the standard clinical work flow, providing a novel way to inform therapy decisions.

PD-L1 in hPD-L1 cells = target: T6, PD-L1 in hPD-L1 cells (Homo sapiens, UniProt Q9NZQ7); assay: In vitro binding of [64Cu]WL12 to hPD-L1 and CHO cells; type: cell-based
T6 construct: expressed in transfected cells; grown as tumours in NSG mice for the in vivo units
Description: (§1) 1.4.9. […] After incubation, cells were washed three times with cold PBS prior to counting on an automated gamma counter (1282 Compugamma CS, Pharmacia/LKBNuclear, Inc., Gaithersburg, Md.). […] Mean fluorescence intensity values were correlated with % incubated dose (% ID) uptake. All the cell uptake studies were performed in triplicate for each cell line and repeated three times.

in vivo = assay: in vivo; design: species or system mouse; conditions: female, mouse, in vivo, iv, 40 uCi, total radioactivity, radioactivity uptake
Description: (§2) 1.4.10. Animal Models: Animal studies were performed according to the protocols approved by the JHU Animal Care and Use Committee (ACUC). Six-to-eight week old, female, non-obese diabetic severe-combined immunodeficient gamma (NSG) mice were obtained from the JHU Immune Compromised Animal Core. Mice were implanted subcutaneously in opposite sides of the upper flanks with 10×10^6 of CHO-PDL1 and CHO cells. […] 1.4.12. […] For the blocking study, mice were co-injected with 2 mg/kg (50 μg) of unmodified peptide with the radiotracer. The percentage of injected dose per gram of tissue (% ID/g) values were calculated based on signal decay correction and normalization to external [^64Cu] standards, which were measured in triplicate. Biodistribution data shown is mean±the standard error of the mean (SEM).

hPD-L1 tumors [7] = target: T7, hPD-L1 tumors (Homo sapiens, UniProt Q9NZQ7); assay: in vivo; design: species or system mouse
T7 construct: expressed in transfected cells; grown as tumours in NSG mice for the in vivo units
Description: as §2

hPD-L1 tumors [8] = target: T7, hPD-L1 tumors; assay: PET-CT imaging of [64Cu]WL12 in mice with hPD-L1 and CHO tumors; type: in vivo, mouse
Description: 1.4.10. Animal Models: Animal studies were performed according to the protocols approved by the JHU Animal Care and Use Committee (ACUC). Six-to-eight week old, female, non-obese diabetic severe-combined immunodeficient gamma (NSG) mice were obtained from the JHU Immune Compromised Animal Core. Mice were implanted subcutaneously in opposite sides of the upper flanks with 10×10^6 of CHO-PDL1 and CHO cells. […] 1.4.11. […] Mice were maintained at 1% Isofluorane levels during imaging. PET images were acquired in two bed positions at 10 min/bed in an ARGUS small-animal PET/CT scanner (Sedecal, Madrid, Spain). A CT scan (512 projections) was performed at the end of each PET scan for anatomical co-registration. PET data were reconstructed using the two-dimensional ordered subsets-expectation maximization algorithm (2D-OSEM) and corrected for dead time and radioactive decay. The % ID per cc values were calculated based on a calibration factor obtained from a known radioactive quantity. Final data visualization and image generation was accomplished using Amira® (FEI, Hillsboro, Oreg.).

PD-L1 in MDAMB231 cells = target: T8, PD-L1 in MDAMB231 cells (Homo sapiens, UniProt Q9NZQ7); assay: In vitro binding of [64Cu]WL12 to MDAMB231 and SUM149 cells; type: cell-based; conditions: 1 h incubation
T8 construct: MDAMB231 breast cancer cells, which naturally express PD-L1; endogenous in cells; host or cells: MDAMB231 (ATCC)
Description: as §1

[9] = mouse, in vivo, iv, 40 uCi, 1 h

T6 sequence (Q9NZQ7 19-290): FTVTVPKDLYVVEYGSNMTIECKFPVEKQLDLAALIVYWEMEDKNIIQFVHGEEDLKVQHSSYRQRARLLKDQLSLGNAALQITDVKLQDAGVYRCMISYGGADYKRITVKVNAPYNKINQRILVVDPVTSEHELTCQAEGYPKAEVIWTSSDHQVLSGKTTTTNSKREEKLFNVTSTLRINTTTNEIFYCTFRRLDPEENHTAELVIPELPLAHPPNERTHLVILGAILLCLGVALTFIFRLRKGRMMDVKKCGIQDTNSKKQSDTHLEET
T7 sequence (Q9NZQ7 19-290): as above
T4 sequence (Q9NZQ7 19-290): as above
T3 sequence (Q9NZQ7 19-290): as above
T1 sequence (Q9NZQ7 19-290): as above
T5 sequence (Q9NZQ7 19-290): as above
T8 sequence (Q9NZQ7 19-290): as above
T2 sequence (Q9NZQ7 19-290): as above

DurMab: FDA-approved PD-L1 mAb durvalumab
less uptake of [64Cu]WL12 in tumors vs saline controls (PD-L1 in MDAMB231 tumors [1]): approximately 60% | [64Cu]WL12 uptake in MDAMB231 xenografts (PD-L1 in MDAMB231 tumors [2]): significantly reduced | [64Cu]WL12 binding to PD-L1-positive cells [3]: inhibited | decrease of [64Cu]WL12 binding to doxycycline-treated A549-iPDL1 cells ([4]; 60 nM mAb): 65%

[^111In]AtzMab: 111In-radiolabeled atezolizumab
uptake in PD-L1high H2444 vs PD-L1low H1155 NSCLC xenografts [5]: Increased uptake | uptake in PD-L1high MDAMB231 vs PD-L1low SUM149 TNBC xenografts [5]: Increased uptake

CCCC[C@H]1C(=O)N(C)[C@@H](CCCC)C(=O)N[C@@H](CCCNC(=O)CCC(C(=O)O)N2CCN(CC(=O)O)CCN(CC(=O)O)CCN(CC(=O)O)CC2)C(=O)N[C@H](C(=O)NCC(N)=O)CSCC(=O)N[C@@H](Cc2ccc(O)cc2)C(=O)N(C)[C@@H](C)C(=O)N[C@@H](CC(N)=O)C(=O)N2CCC[C@H]2C(=O)N[C@@H](Cc2c[nH]cn2)C(=O)N[C@@H](CC(C)C)C(=O)N2C[C@H](O)C[C@H]2C(=O)N[C@@H](Cc2c[nH]c3ccccc23)C(=O)N[C@@H](CO)C(=O)N[C@@H](Cc2cn(C)c3ccccc23)C(=O)N1C (single isomer, unassigned) [[^64Cu]WL12, metal not drawn]
accumulation in A549-iPDL1 tumors higher than in A549 control tumors [6]: 65% | correlation (r) of mean fluorescence intensity with uptake of radioactivity (PD-L1 in hPD-L1 cells; hPD-L1, MDAMB231, SUM149, CHO cells): 0.9977 | reduction in bound [64Cu]WL12 (PD-L1 in hPD-L1 cells; hPD-L1 cells, 1 μM blocking dose of WL12): > 95% | increase in bound radioactivity compared to negative control CHO cells (PD-L1 in hPD-L1 cells; hPD-L1 cells, 1 h incubation): 43 fold | uptake of the incubated dose (PD-L1 in hPD-L1 cells; hPD-L1 cells, 1 h incubation): > 50% | tissue uptake at 1 h (in vivo; control CHO tumor): 4 ± 0.6 %ID/g | tissue uptake at 1 h (in vivo; hPD-L1 tumors): 14.9 ± 0.8 %ID/g | tissue uptake at 1 h (in vivo; kidneys): 34.4 ± 3.1 %ID/g | tissue uptake at 1 h (in vivo; liver): 24.2 ± 2.5 %ID/g | reduction in % ID/g values in hPD-L1 tumors (hPD-L1 tumors [7]; co-injected excess WL12 (50 μg, 2 mg/kg), 2 h): > 75% | change of uptake in control CHO tumors with blocking dose (hPD-L1 tumors [7]; co-injected excess WL12, 2 h): no significant difference | affinity for mouse PD-L1 (hPD-L1 tumors [7]; inferred from low uptake in spleen, thymus, brown fat): very low or no affinity | tumor-to-blood ratio (hPD-L1 tumors [7]; [9]): 4.7±1.2 | tumor-to-muscle ratio (hPD-L1 tumors [7]; [9]): 25.6±1.9 | time of increased uptake in hPD-L1 tumors, PET (hPD-L1 tumors [8]; 150 μCi i.v.): as early as 10 min and retained through 24 h post-injection | uptake in hPD-L1 tumor compared to CHO tumor, PET-CT (hPD-L1 tumors [8]; 24 h after injection): Increased uptake | uptake of radioactivity in MDAMB231 cells compared to SUM149 cells (PD-L1 in MDAMB231 cells): Two-fold higher | increase in radioactivity uptake, doxycycline treated vs. untreated cells ([4]; A549-iPDL1 cells): 5.5 fold
